Values quoted from earlier work in paper PMC7339208.
pKd: −log10 of the molar value.

What was measured:
[1] = target: IL-2 (Homo sapiens) (UniProt P60568)
[2] = target: IL-15 (Homo sapiens) (UniProt P40933)
Chain of UniProt P40933 (P40933 49-162): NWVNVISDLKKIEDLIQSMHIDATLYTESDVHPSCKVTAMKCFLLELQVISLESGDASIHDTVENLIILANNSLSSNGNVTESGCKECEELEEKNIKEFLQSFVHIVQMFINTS

Chain of UniProt P60568 (P60568 21-153): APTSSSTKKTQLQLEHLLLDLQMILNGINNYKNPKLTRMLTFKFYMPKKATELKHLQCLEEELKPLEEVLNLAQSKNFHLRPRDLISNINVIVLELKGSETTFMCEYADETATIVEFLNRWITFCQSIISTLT

pKd [1] | pKd [2] | Substance
8.00 | – | IL-2Rα (from UniProt P01589)
– | 10.00 | IL-15Rα (from UniProt Q13261)
